Measurements published in US20230091175A1.

Key:
[1] = biological target: human IL 12 protein (Recombinant His, C-terminus) (aa23-328) (LS-G134297-50: LSBio, Inc.) (human) (UniProt P29460); test: SPR (Biacore 8K), antigen immobilized on CM4 chip, antibody as analyte
[2] = biological target: human IL 12 protein (Recombinant His, C-terminus) (aa23-328) (LS-G134297-50: LSBio, Inc.) (human) (UniProt P29460); test: SPR (Biacore 8K); affinity ratio with the original antibody as 1.0

human IL 12 protein (Recombinant His, C-terminus) (aa23-328) (LS-G134297-50: LSBio, Inc.) (human), sequence (P29460 23-328, form in doubt): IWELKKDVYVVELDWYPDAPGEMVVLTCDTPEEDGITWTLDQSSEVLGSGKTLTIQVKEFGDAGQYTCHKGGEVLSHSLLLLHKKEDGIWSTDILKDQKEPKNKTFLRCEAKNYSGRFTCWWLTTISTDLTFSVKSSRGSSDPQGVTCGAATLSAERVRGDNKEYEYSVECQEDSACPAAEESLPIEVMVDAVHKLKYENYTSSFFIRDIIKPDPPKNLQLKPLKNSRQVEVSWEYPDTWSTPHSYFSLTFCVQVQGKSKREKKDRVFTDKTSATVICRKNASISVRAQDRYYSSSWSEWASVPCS

| Kd [1] [pM] | KD ratio [2] | Binder |
| --- | --- | --- |
| 10300 | 1 | mouse anti-human IL-12 antibody (clone 22-4), original (unmodified) (Fab, V domains shown, not shown: a dimerising Fc or GST) VH: EVQLQESGPSLVKPSQTLSLTCSVTGDSITSGYWNWIRKFPGNKLEYMGYISYSGSTYYNPSLKSRISITRDTSKNQNYLQLNSVTTEDTATYYCARRDTTVVVPYYFDYWGQGTTLTVSS VL: DIVMTQSHKFMSTSVGDRVSITCKASQDVGTAVAWYQQKPGQSPKLLIYWASTRHTGVPGRFTGSGSGTDFTLTINNVQSEDLADYFCQQYSSYPLTFGAGTKLELKR |
| 497 | 20.8 | R3 variant of anti-IL-12 antibody (clone 22-4) (Fab, V domains shown, not shown: a dimerising Fc or GST) VH: EVQLQESGPSLVKPSQTLSLTCSVTGDSITSGYWNWIRKFPGNKLEYMGYISYSGSTYYNPSLKSRISITRDTSKNQNYLQLNSVTTEDTATYYCARRDTTVVVPYYFDYWGQGTTLTVSS VL: DIVMTQSHKFMSTSVGDRVSITCKASQDVGTAVAWYQQKPGQSPKLLIYWASTRHTGVPGRFRGRGRGTDFTLTINNVQSEDLADYFCQQYSSYPLTFGAGTKLELKR |
| 245 | 42.2 | R4 variant of anti-IL-12 antibody (clone 22-4) (Fab, V domains shown, not shown: a dimerising Fc or GST) VH: EVQLQESGPSLVKPSQTLSLTCSVTGDSITSGYWNWIRKFPGNKLEYMGYISYSGSTYYNPSLKSRISITRDTSKNQNYLQLNSVTTEDTATYYCARRDTTVVVPYYFDYWGQGTTLTVSS VL: DIVMTQSHKFMSTSVGDRVSITCKASQDVGTAVAWYQQKPGQSPKLLIYWASTRHTGVPGRFRGRGRGTRFTLTINNVQSEDLADYFCQQYSSYPLTFGAGTKLELKR |
